Results reported in IntAct's records for PubMed 15479639.

B1: Chaperone ric-8 (Caenorhabditis elegans), Q9GSX9-1 (parent)
chain: MSEELHSDLIASIFGGKPAKIEEFFSKWNFANAAVSKFDMANSAKNELGDRICEVIENGELTHVLLETIKILSREKDGLEGLLNDPLCDKILAFAELSSNENNSKTVHTLMEAQKCLINTLFHSQRMRDRFYANPKTGENLQFFLGEFEENRRKTSSIDWIRLLNPVQAAEIWYFYHRIAFIATALGREFQKNWANDPKTIDSLLLAVEICTNRSENSTQDINRATEALKTFFNVFCHFHGDVKAIDHKNAAKTCQILRDAICSDVLTDDVVQSAIHCLSVPPLPMVLSVLCGKNSKNNGGENEEEKFFVEELSNMQLTEAILMHLDKQLTKVVALLLNDAPNQQQNPMLSAEASTLTDLVGPYFQVLARLCTDSKYVRRYCRIRVIPPLVSEEVQKRPEENNTLRGRIARIMMLPSSTKDVAAEFLFIICKRSVNRMIKYLGFGHSAGHLANLGLLGQINQPKHASDSEDSETEDYNQIKDSVNPVTGAIYPSDHGSALAGMSEEQKEYEAMKLVDAMNQMMETGIVKPGTIGDDGKIREVSHVLELLKNAPEPAPAENSDSDEE

Variants of: B1
Details: with gnao_caeel goa-1, P51875
Sequence of gnao_caeel goa-1, P51875 (P51875 whole entry): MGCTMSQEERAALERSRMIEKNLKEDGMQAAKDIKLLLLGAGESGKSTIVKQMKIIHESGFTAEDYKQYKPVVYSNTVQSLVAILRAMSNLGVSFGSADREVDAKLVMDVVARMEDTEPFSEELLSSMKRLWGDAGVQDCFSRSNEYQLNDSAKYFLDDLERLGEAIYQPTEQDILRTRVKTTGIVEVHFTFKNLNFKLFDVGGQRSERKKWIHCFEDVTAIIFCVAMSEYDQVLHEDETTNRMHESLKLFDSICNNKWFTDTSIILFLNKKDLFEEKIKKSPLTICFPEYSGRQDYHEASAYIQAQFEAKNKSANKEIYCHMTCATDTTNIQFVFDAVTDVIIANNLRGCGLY

| effect of a mutation on the interaction | Variant |
| --- | --- |
| increasing interaction | L267F |
| decreasing interaction | A275E |
